Paper PMC5640805

Columns and labels:
[1] = target: C108 SOSIP.664 trimer (HIV-1 (isolate C108.c03)); assay: negative-stain EM; PGT145-purified SOSIPs; class averages
[2] = target: C108 SOSIP.664 trimer (HIV-1 (isolate C108.c03)); assay: SEC; PGT145-affinity-purified SOSIPs on a Superdex 200 10-300 GL column in PBS
[3] = target: CRF250 SOSIP.664 trimer (HIV-1 (isolate CRF-T250-4)); assay: negative-stain EM; PGT145-purified SOSIPs; class averages
[4] = target: CRF250 SOSIP.664 trimer (HIV-1 (isolate CRF-T250-4)); assay: SEC; PGT145-affinity-purified SOSIPs on a Superdex 200 10-300 GL column in PBS
[5] = target: MGRM8 SOSIP.664 trimer (HIV-1 (isolate MGRM_AG_002_8)); assay: negative-stain EM; PGT145-purified SOSIPs; class averages
[6] = target: MGRM8 SOSIP.664 trimer (HIV-1 (isolate MGRM_AG_002_8)); assay: SEC; PGT145-affinity-purified SOSIPs on a Superdex 200 10-300 GL column in PBS
[7] = target: WITO SOSIP.664 trimer (HIV-1 (isolate WITO4160.33)); assay: negative-stain EM; PGT145-purified SOSIPs; class averages
[8] = target: WITO SOSIP.664 trimer (HIV-1 (isolate WITO4160.33)); assay: SEC; PGT145-affinity-purified SOSIPs on a Superdex 200 10-300 GL column in PBS

C108 SOSIP.664 trimer (complex) was tested, and the stoichiometry N [1] was 3 and the stoichiometry N [2] was 3.
CRF250 SOSIP.664 trimer (complex) was tested, and the stoichiometry N [3] was 3 and the stoichiometry N [4] was 3.
MGRM8 SOSIP.664 trimer (complex) was tested, and the stoichiometry N [5] was 3 and the stoichiometry N [6] was 3.
WITO SOSIP.664 trimer (complex) showed a stoichiometry N [7] of 3 and a stoichiometry N [8] of 3.
